Reference: US20260167712A1, “INHIBITORY ANTIBODIES AGAINST GLUT1” (ICOSAGEN CELL FACTORY OÜ, priority 2022, published 2026)
Entries after “also recorded” stand apart in the source; their conditions may differ.

T1: SLC2A1 pseudotyped VLPs (Homo sapiens, UniProt P11166)
T1 sequence (P11166 1-492): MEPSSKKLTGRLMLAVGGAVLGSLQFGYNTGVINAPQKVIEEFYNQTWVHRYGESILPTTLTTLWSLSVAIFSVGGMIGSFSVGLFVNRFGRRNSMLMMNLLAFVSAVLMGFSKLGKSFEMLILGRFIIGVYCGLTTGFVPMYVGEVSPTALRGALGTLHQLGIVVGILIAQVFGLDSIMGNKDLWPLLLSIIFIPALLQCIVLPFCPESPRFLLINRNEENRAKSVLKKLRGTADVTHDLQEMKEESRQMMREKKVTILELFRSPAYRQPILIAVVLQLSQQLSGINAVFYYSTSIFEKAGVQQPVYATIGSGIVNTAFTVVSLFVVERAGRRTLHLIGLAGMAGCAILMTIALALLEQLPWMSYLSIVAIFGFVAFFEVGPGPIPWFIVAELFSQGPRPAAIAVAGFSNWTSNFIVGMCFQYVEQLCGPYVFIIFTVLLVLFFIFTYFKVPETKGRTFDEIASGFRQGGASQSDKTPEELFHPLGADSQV

T2: SLC2A2 pseudotyped VLPs (Homo sapiens, UniProt P11168)
T2 sequence (P11168 1-524): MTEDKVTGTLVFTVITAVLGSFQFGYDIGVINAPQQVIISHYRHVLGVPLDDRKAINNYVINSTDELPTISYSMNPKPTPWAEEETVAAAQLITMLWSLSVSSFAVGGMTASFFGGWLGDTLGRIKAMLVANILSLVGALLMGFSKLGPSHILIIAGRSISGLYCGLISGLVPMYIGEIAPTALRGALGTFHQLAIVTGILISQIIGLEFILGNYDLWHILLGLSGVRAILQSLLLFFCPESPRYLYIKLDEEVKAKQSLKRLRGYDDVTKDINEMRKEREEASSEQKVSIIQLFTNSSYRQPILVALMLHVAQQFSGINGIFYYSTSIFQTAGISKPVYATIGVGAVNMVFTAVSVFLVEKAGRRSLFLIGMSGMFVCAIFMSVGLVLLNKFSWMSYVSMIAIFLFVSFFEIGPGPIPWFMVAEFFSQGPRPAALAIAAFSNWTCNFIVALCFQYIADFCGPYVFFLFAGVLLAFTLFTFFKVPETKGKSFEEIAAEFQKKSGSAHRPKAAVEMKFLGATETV

T3: SLC2A2 pseudotyped VLPs (UniProt P11168 1-524)
T3 construct: also called SLC2A2 VLPs; GLUT2
T3 sequence: T2 sequence (P11168 1-524)

T4: SLC2A4 pseudotyped VLPs (UniProt P14672 1-509)
T4 construct: also called SLC2A4 VLPs; GLUT4
T4 sequence: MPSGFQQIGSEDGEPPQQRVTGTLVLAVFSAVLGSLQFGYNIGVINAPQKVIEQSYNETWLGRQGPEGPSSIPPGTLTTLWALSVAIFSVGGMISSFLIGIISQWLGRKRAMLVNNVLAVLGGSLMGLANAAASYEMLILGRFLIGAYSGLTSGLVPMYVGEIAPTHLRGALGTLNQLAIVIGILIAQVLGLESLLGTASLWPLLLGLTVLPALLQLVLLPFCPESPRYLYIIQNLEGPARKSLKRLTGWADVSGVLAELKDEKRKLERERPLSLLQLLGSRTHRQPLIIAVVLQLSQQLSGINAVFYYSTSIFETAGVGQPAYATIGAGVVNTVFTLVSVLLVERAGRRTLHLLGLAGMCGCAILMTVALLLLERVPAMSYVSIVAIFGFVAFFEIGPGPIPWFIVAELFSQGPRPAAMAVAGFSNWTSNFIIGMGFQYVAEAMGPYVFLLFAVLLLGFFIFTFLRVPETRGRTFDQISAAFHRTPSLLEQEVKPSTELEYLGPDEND

B1: 6F12 #33 (antibody, V domains shown)
VH: AVTLDESGGGLQTPGGALSLVCKASGFTFSDHAIFWVRQAPDKGLEFVAAISSGTGSWTAYATVVKGRATISRDNGQSTVRLQLNNLRAADTATYYCAKGAGSACCYAGSIDAWGHGTEVIVSS
VL: ALTQPSSVSANPGETVKITCSGGSSSSYYGWYQQKSPGSAPVTLIYYNDKRPSDIPSRFSGSKSGSTATLTITGVQVEDEAVYYCGTGDGSFAIFGAGTTLTVL
B2: 2E5 #22 (antibody, V domains shown)
VH: AVTLDESGGGLQTPGGALSLVCKASGFTFSTKGMGWVRQTPGKGLEWVAGISSMRRYTYYAPAVKGRATISRDNGQSTVRLQLSSLRAEDSGTYYCARDATYCSWTTSTCGWSGGTIDAWGHGTEVIVSS
VL: ALTQPSSVSANLGGTVKITCSGGSGNYGWYQQKSPGSVPVTVIYSNDKRPSDIPSRFSGSGSGSTATLTITGVQVEDEAVYFCGSRDSSYVGLFGAGTTLTVL

Columns and labels:
SLC2A1 pseudotyped VLPs = target: T1, SLC2A1 pseudotyped VLPs; experiment: ELISA-based SLC2A1 VLP binding assay; details: 5 μg/mL VLP coating, FIG. 1
Method: (§1) An ELISA-based VLP binding assay was carried out to compare the EC50 values of antibody clones (FIG. 1). Similarly, ELISA based VLP binding assay was performed to compare the binding of the antibodies to different glucose transporters (FIG. 3). MaxiSorp™ high-capacity binding ELISA plate (Thermo Fisher Scientific, US) were coated with 5 μg/mL SLC2A1, SLC2A2, SLC2A3, SLC2A4 pseudotyped VLPs or MOCK VLPs in PBS overnight. The plate was washed and blocked for 1 h with 0.05% Tween 20, 2% BSA in PBS. Serial dilutions of antibodies were incubated on a washed plate for 1 hour, followed by a 1-hour incubation with goat anti-human IgG horse radish peroxidase (HRP) conjugated (Invitrogen) antibody. TMB (3,3′,5,5′-Tetramethylbenzidine) Solution VII (Biopanda Diagnostics) was used as a substrate for HRP and 0.5 M H2SO4 was used as stop solution. After every step, the wells were washed with 0.05% Tween 20, 0.1% Proclin 300 PBS solution. Absorption at 450 nm was measured with Thermo Scientific™ Multiskan™ FC Microplate Photometer. Exemplary wise used antibodies 1G2 #9, 2A2 #12, 2E5 #22, 5G5 #30, 6F12 #33, 7C3 #39 all bound SLC2A1 VLPs with low nanomolar EC50 values (FIG. 1).

SLC2A2 pseudotyped VLPs [1] = target: T2, SLC2A2 pseudotyped VLPs; experiment: ELISA-based VLP binding assay, SLC2A2; details: compared to MOCK VLPs, FIG. 3
Method: as §1

MCF7 breast cancer cells = experiment: Cell proliferation inhibition assay (Incucyte), MCF7; format: cell-based; details: for MCF7 cell growth in combination with phenformin: co-treatment with phenformin, FIGS. 7 and 9
Method: Incucyte S3 Live cell analysis instrument and Cell-by-Cell analysis software module (Sartorius) were used to evaluate the effect of anti-SLC2A1 antibodies on cancer cell proliferation label-free (FIGS. 5-11). MCF7, PC3 or PANC1 or MIAPACA2 cells were plated on flat bottom tissue culture 96-well plate in […] medium (Ximbio) supplemented with 2.5% FBS. Cells were incubated overnight and 0.02 nM to 13 μM anti-SLC2A1 antibodies, anti-HEL isotype control, PBS or BAY-876 were added to the cells alone or in combination with metformin (CaymanChem), phenformin (Sigma Aldrich) or IACS-010759 (CaymanChem). Cell confluence or object count was measured for 24 to 96 hours with Incucyte S3 and normalized to timepoint 0 h or 4h. anti-SLC2A1 antibodies inhibit cancer cell proliferation alone and especially in combination with complex-I inhibitors metformin, phenformin and IACS-010759. Exemplary antibodies 1G2 #9, 2A2 #12, 2E5 #22, 5G5 #30, 6F12 #33, 7C3 #39 and R14 #54 were used in proliferation assays.

SLC2A2 pseudotyped VLPs [2] = target: T3, SLC2A2 pseudotyped VLPs; experiment: ELISA on VLPs coated at 5 ug/mL, compared with MOCK VLPs
SLC2A4 pseudotyped VLPs = target: T4, SLC2A4 pseudotyped VLPs; experiment: as above

| Molecule | EC50 of binding to SLC2A1 VLPs (SLC2A1 pseudotyped VLPs) | binding to SLC2A2 VLPs (SLC2A2 pseudotyped VLPs [1]) | MCF7 cell growth in combination with IACS-010759 (MCF7 breast cancer cells; co-treatment with IACS-010759, FIG. 8) | MCF7 cell growth in combination with metformin (MCF7 breast cancer cells; co-treatment with metformin, FIG. 6) | MCF7 cell growth in combination with phenformin (MCF7 breast cancer cells) | binding result (SLC2A2 pseudotyped VLPs [2]) | binding result (SLC2A4 pseudotyped VLPs) | MCF7 cell growth (confluence), single agent (MCF7 breast cancer cells; alone, Incucyte) |
| --- | --- | --- | --- | --- | --- | --- | --- | --- |
| B1 | low nanomolar | did not bind | drastically inhibited | drastically inhibited | completely inhibit; also recorded: drastically inhibited; also recorded: most potent growth inhibitors | no binding | no binding |  |
| B2 | low nanomolar | did not bind; also recorded: Some binding |  |  | completely inhibit; also recorded: most potent growth inhibitors | no binding | no binding | only a modest inhibition |
